The target of data set [1] is T1, His6-Rrp41 of Sulfolobus solfataricus (Sulfolobus solfataricus, UniProt Q9UXC2 1-248).
T1 sequence (looked up): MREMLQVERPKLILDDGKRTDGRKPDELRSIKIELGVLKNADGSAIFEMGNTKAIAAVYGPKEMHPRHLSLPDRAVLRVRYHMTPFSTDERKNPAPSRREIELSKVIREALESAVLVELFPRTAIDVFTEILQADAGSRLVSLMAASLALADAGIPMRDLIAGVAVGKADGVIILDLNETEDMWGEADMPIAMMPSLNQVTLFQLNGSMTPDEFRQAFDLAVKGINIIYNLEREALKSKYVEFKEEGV
The data set is described as follows: pull-down; subunits of the reconstituted Strep-Csl4 exosome (purified His6-Rrp41, His6-Rrp42 and Strep-tagged Csl4 mixed in buffer P0) recovered on Strep-Tactin Sepharose through Strep-Csl4, E. coli cell-free extract with DnaG-K6AY7A present; eluted with D-desthiobiotin; silver-stained SDS-PAGE. As to conditions: both partners purified.

The target of data set [2] is T2, His6-Rrp42 of Sulfolobus solfataricus (Sulfolobus solfataricus, UniProt Q9UXC0 1-275).
T2 sequence (looked up): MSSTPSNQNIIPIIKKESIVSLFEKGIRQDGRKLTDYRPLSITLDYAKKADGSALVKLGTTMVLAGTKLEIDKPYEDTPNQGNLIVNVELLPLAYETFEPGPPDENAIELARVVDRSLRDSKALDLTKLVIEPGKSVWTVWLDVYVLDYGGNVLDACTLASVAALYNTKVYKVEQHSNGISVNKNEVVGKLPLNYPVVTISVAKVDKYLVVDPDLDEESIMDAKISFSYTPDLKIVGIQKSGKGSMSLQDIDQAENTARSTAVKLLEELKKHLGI
The description is as above. The note with it: both partners purified.

A further data set addresses T3, Csl4 (Saccharolobus (Sulfolobus) solfataricus, UniProt Q980J9 1-189).
T3 sequence: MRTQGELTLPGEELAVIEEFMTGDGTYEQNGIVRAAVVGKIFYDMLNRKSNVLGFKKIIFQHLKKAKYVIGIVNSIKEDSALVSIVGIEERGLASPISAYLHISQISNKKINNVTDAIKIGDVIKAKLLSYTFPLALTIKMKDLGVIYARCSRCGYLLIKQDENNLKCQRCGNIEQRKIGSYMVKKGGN
Nature of the data set: EMSA; 25 fmol RNA; 20 mM HEPES pH 7.9, 60 mM KCl, 10 mM MgCl2, 10% glycerol, 2 mM DTT, 0.1 mM EDTA; room temperature 5 min, 10 ul; 5% native PAA gel at 4 C. (In EMSA bound probe runs differently from free probe, usually more slowly.)

Another data set deals with T4, Csl4-NT (Saccharolobus (Sulfolobus) solfataricus, UniProt Q980J9 1-189+=V+P95980:2-156, internal_change).
T4 sequence: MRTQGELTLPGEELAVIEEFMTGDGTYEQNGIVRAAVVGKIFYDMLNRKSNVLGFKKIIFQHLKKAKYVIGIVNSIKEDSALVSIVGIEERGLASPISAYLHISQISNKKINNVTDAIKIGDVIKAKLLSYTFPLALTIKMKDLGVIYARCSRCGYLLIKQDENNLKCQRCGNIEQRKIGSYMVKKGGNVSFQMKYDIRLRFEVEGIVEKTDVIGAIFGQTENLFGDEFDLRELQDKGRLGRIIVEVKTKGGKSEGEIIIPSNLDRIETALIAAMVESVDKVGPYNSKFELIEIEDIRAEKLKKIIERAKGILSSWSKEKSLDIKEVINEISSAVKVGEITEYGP
The description is as above.

The target in data set [3] is T5, DnaG (Saccharolobus (Sulfolobus) solfataricus, UniProt P95980 1-406).
T5 sequence: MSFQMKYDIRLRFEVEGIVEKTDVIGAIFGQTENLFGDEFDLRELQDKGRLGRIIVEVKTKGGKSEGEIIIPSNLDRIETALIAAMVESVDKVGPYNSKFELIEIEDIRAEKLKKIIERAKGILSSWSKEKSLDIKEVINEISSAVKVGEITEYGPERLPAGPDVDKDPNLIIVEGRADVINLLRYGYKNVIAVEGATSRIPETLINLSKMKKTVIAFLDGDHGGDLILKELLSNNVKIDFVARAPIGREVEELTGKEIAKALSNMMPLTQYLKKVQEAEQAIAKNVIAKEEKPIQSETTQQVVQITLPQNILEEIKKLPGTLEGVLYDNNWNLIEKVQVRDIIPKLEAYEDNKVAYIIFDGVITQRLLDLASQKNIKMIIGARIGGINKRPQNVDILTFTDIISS
The data set is described as follows: EMSA; 25 fmol RNA, 2.5 pmol protein; 20 mM HEPES pH 7.9, 60 mM KCl, 10 mM MgCl2, 10% glycerol, 2 mM DTT, 0.1 mM EDTA; room temperature 5 min, 10 ul; 5% native PAA gel at 4 C.

A further data set has as its target T6, DnaG-K6AY7A (Saccharolobus (Sulfolobus) solfataricus, UniProt P95980 1-406, K6A;Y7A).
T6 sequence: T5 sequence with K6A, Y7A
The description is as above.

Data set [4] concerns the target T5, DnaG. The data set is described as follows: EMSA; 25 fmol DNA, 2.5 pmol protein; 20 mM HEPES pH 7.9, 60 mM KCl, 10 mM MgCl2, 10% glycerol, 2 mM DTT, 0.1 mM EDTA; room temperature 5 min, 10 ul; 5% native PAA gel at 4 C.

Numbering of substitutions follows the chain as printed.

B1: Strep-tagged Csl4 of Sulfolobus solfataricus (natural protein, UniProt Q980J9 1-189, looked up)
chain: T3 sequence
On to B1, for which the binding result in data set [1] and in data set [2] was “binds” throughout.

Regarding AAAAAAAAAAAAAAAAAAAAAAAAAAAAAA (ssRNA) [poly(rA)30], the binding result in the data set with Csl4 is listed as “no binding”; with Csl4-NT, “binds”; with DnaG [3], “binds”; with DnaG-K6AY7A it was “no binding”.

For AAAAAAAAAAAAAAAAAAAAAAAAAAAAAA (ssDNA) [poly(dA)30], in the data set with DnaG [4], the binding result is “no binding”.

The record behind these values is publication PMC4227792 (Nucleic Acids Research, 2014).
